Experimental data taken from EP0621339B1 (TAKARA SHUZO CO. LTD., dated 2001).

Target: HA molecule (haemagglutinin) of A/Okuda/57 (H2N2) (influenza A virus, H2N2 subtype, strain A/Okuda/57)
Test: cell-based or functional assay

**Q.** How did the HI (hemagglutination inhibition titer) (fold dilution of the ascites fluid) turn out when monoclonal antibody C179 was run?
**A.** < 32
